For assay [1], the target named is T1, Msh2–Msh6(K988M) (S. cerevisiae, UniProt P25847 1-964; Q03834 1-1242, K988M).
T1 construct: Msh2, S. cerevisiae, wild type; Msh6, S. cerevisiae, Walker A lysine mutant; also called Walker A Lys mutant Msh2–Msh6 complex; source: purified
Description: SPR; Biacore T100; 236-bp GT mispair DNA held by biotin-streptavidin, other end blocked by lacO-LacI; 20 nM Msh2–Msh6, 250 μM ATP, 30 nM LacI for 100 s, then the same plus 40 nM Mlh1–Pms1 for 300 s; recruitment read as the increase in RU over steady-state Msh2–Msh6; 25 mM Tris pH 8, 4 mM MgCl2, 110 mM NaCl, 0.01% Igepal, 2 mM DTT, 2% glycerol; 10 °C, 20 μl/min. The note with it: both partners purified.

For assay [2], the target named is T2, Msh2–Msh6(K988A) (S. cerevisiae, UniProt P25847 1-964; Q03834 1-1242, K988A).
T2 construct: Msh2, S. cerevisiae, wild type; Msh6, S. cerevisiae, Walker A lysine mutant; also called Walker A Lys mutant Msh2–Msh6 complex
T2 sequence (P25847 whole entry, chain 1 of 2): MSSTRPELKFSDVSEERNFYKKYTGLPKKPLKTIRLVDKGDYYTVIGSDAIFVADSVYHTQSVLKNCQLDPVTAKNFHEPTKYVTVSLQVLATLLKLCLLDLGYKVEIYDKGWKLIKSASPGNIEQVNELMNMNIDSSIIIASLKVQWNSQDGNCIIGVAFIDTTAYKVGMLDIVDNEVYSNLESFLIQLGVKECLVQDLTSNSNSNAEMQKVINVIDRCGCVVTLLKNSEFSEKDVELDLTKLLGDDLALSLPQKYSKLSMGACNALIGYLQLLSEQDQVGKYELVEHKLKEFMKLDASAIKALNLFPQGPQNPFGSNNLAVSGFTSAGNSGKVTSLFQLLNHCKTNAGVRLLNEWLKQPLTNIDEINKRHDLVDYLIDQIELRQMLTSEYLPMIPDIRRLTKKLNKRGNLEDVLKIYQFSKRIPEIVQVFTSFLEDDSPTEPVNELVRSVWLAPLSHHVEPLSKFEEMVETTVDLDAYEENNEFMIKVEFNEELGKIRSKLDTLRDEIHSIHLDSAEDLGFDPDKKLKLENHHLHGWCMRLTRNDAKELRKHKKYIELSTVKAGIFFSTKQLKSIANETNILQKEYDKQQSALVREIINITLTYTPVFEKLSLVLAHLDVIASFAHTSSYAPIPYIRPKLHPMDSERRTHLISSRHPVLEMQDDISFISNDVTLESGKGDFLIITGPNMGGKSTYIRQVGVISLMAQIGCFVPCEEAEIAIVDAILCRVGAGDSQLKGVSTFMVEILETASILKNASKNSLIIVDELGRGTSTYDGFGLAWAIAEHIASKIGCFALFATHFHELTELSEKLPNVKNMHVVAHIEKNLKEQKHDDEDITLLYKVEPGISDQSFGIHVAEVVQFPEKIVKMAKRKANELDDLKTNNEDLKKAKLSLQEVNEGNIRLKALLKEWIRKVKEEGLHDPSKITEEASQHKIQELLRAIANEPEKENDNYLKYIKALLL
T2 sequence (Q03834 whole entry K988A, chain 2 of 2): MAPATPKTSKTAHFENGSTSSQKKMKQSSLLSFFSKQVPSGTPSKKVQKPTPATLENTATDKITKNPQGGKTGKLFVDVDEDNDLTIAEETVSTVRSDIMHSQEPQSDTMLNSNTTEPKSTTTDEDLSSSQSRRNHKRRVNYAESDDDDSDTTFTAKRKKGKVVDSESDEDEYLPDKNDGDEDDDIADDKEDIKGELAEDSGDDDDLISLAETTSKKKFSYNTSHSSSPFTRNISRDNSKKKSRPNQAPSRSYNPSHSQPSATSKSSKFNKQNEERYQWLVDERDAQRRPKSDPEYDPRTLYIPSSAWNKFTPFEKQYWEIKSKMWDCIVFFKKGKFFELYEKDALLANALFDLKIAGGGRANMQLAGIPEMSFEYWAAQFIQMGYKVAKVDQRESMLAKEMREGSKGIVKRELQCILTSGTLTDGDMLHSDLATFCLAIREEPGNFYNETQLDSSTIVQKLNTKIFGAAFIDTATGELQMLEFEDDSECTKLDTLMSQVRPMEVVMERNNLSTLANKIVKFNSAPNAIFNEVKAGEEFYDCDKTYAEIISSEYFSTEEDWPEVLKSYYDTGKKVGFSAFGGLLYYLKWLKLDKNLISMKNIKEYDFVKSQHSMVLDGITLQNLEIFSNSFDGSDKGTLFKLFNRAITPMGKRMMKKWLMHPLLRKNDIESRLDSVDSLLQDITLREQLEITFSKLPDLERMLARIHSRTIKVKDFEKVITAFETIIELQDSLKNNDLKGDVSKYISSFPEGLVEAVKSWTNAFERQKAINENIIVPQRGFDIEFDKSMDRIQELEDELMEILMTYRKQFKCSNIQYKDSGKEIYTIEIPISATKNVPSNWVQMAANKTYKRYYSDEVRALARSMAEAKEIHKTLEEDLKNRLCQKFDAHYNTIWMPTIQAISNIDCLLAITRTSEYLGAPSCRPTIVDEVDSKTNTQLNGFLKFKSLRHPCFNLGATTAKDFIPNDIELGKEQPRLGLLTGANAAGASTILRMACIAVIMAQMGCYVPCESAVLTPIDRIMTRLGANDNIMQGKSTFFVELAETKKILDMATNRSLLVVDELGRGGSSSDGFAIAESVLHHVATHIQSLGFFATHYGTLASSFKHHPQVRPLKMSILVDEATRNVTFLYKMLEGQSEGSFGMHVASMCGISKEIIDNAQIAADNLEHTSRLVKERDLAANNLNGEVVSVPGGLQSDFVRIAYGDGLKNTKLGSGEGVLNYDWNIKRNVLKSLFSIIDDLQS
The description is as above. The settings on record: both partners purified.

In assay [3] the target is T3, Msh2–Msh6(K988R) (S. cerevisiae, UniProt P25847 1-964; Q03834 1-1242, K988R).
T3 construct: Msh2, S. cerevisiae, wild type; Msh6, S. cerevisiae, Walker A lysine mutant; also called Walker A Lys mutant Msh2–Msh6 complex
T3 sequence (P25847 whole entry, chain 1 of 2): as the sequence (P25847 whole entry, chain 1 of 2) above
T3 sequence (Q03834 whole entry K988R, chain 2 of 2): as the sequence (Q03834 whole entry K988A, chain 2 of 2) above, with A988R counted along it
The description is as above. The note with it: both partners purified.

Assay [4] has as its target T4, S. cerevisiae Msh2–Msh6 (WT) (S. cerevisiae, UniProt P25847 1-964; Q03834 1-1242).
T4 construct: Msh2, S. cerevisiae, wild type; Msh6, S. cerevisiae, wild type; Heterodimer; also called WT Msh2–Msh6
The description is as above. The note with it: both partners purified.

Assay [5] has as its target Msh2(K694A)–Msh6 (S. cerevisiae, UniProt P25847 1-964; Q03834 1-1242, K694A). Description: cell-based or functional assay.
The target in assay [6] is Msh2(K694R)–Msh6 (S. cerevisiae, UniProt P25847 1-964; Q03834 1-1242, K694R). Description: cell-based or functional assay.
Sequence of Msh2(K694R)–Msh6 (P25847 whole entry K694R, chain 1 of 2): as the sequence (P25847 whole entry, chain 1 of 2) above, with K694R counted along it
Sequence of Msh2(K694R)–Msh6 (Q03834 whole entry, chain 2 of 2): as the sequence (Q03834 whole entry K988A, chain 2 of 2) above, with A988K counted along it
Assay [7] concerns the target Msh2(K694M)–Msh6 (S. cerevisiae, UniProt P25847 1-964; Q03834 1-1242, K694M). Description: cell-based or functional assay.

Sequence of Msh2(K694A)–Msh6 (P25847 whole entry K694A, chain 1 of 2): as the sequence (P25847 whole entry, chain 1 of 2) above, with K694A counted along it
Sequence of Msh2(K694A)–Msh6 (Q03834 whole entry, chain 2 of 2): as the sequence (Q03834 whole entry K988A, chain 2 of 2) above, with A988K counted along it
Sequence of Msh2(K694M)–Msh6 (P25847 whole entry K694M, chain 1 of 2): as the sequence (P25847 whole entry, chain 1 of 2) above, with K694M counted along it
Sequence of Msh2(K694M)–Msh6 (Q03834 whole entry, chain 2 of 2): as the sequence (Q03834 whole entry K988A, chain 2 of 2) above, with A988K counted along it
T4 sequence (P25847 whole entry, chain 1 of 2): as the sequence (P25847 whole entry, chain 1 of 2) above
T4 sequence (Q03834 whole entry, chain 2 of 2): as the sequence (Q03834 whole entry K988A, chain 2 of 2) above, with A988K counted along it
T1 sequence (P25847 whole entry, chain 1 of 2): as the sequence (P25847 whole entry, chain 1 of 2) above
T1 sequence (Q03834 whole entry K988M, chain 2 of 2): as the sequence (Q03834 whole entry K988A, chain 2 of 2) above, with A988M counted along it

B1: S. cerevisiae Mlh1–Pms1 (complex)
chain 1: MSLRIKALDASVVNKIAAGEIIISPVNALKEMMENSIDANATMIDILVKEGGIKVLQITDNGSGINKADLPILCERFTTSKLQKFEDLSQIQTYGFRGEALASISHVARVTVTTKVKEDRCAWRVSYAEGKMLESPKPVAGKDGTTILVEDLFFNIPSRLRALRSHNDEYSKILDVVGRYAIHSKDIGFSCKKFGDSNYSLSVKPSYTVQDRIRTVFNKSVASNLITFHISKVEDLNLESVDGKVCNLNFISKKSISPIFFINNRLVTCDLLRRALNSVYSNYLPKGNRPFIYLGIVIDPAAVDVNVHPTKREVRFLSQDEIIEKIANQLHAELSAIDTSRTFKASSISTNKPESLIPFNDTIESDRNRKSLRQAQVVENSYTTANSQLRKAKRQENKLVRIDASQAKITSFLSSSQQFNFEGSSTKRQLSEPKVTNVSHSQEAEKLTLNESEQPRDANTINDNDLKDQPKKKQKLGDYKVPSIADDEKNALPISKDGYIRVPKERVNVNLTSIKKLREKVDDSIHRELTDIFANLNYVGVVDEERRLAAIQHDLKLFLIDYGSVCYELFYQIGLTDFANFGKINLQSTNVSDDIVLYNLLSEFDELNDDASKEKIISKIWDMSSMLNEYYSIELVNDGLDNDLKSVKLKSLPLLLKGYIPSLVKLPFFIYRLGKEVDWEDEQECLDGILREIALLYIPDMVPKVDTSDASLSEDEKAQFINRKEHISSLLEHVLFPCIKRRFLAPRHILKDVVEIANLPDLYKVFERC
chain 2: MTQIHQINDIDVHRITSGQVITDLTTAVKELVDNSIDANANQIEIIFKDYGLESIECSDNGDGIDPSNYEFLALKHYTSKIAKFQDVAKVQTLGFRGEALSSLCGIAKLSVITTTSPPKADKLEYDMVGHITSKTTTSRNKGTTVLVSQLFHNLPVRQKEFSKTFKRQFTKCLTVIQGYAIINAAIKFSVWNITPKGKKNLILSTMRNSSMRKNISSVFGAGGMRGLEEVDLVLDLNPFKNRMLGKYTDDPDFLDLDYKIRVKGYISQNSFGCGRNSKDRQFIYVNKRPVEYSTLLKCCNEVYKTFNNVQFPAVFLNLELPMSLIDVNVTPDKRVILLHNERAVIDIFKTTLSDYYNRQELALPKRMCSQSEQQAQKRLKTEVFDDRSTTHESDNENYHTARSESNQSNHAHFNSTTGVIDKSNGTELTSVMDGNYTNVTDVIGSECEVSVDSSVVLDEGNSSTPTKKLPSIKTDSQNLSDLNLNNFSNPEFQNITSPDKARSLEKVVEEPVYFDIDGEKFQEKAVLSQADGLVFVDNECHEHTNDCCHQERRGSTDTEQDDEADSIYAEIEPVEINVRTPLKNSRKSISKDNYRSLSDGLTHRKFEDEILEYNLSTKNFKEISKNGKQMSSIISKRKSEAQENIIKNKDELEDFEQGEKYLTLTVSKNDFKKMEVVGQFNLGFIIVTRKVDNKYDLFIVDQHASDEKYNFETLQAVTVFKSQKLIIPQPVELSVIDELVVLDNLPVFEKNGFKLKIDEEEEFGSRVKLLSLPTSKQTLFDLGDFNELIHLIKEDGGLRRDNIRCSKIRSMFAMRACRSSIMIGKPLNKKTMTRVVHNLSELDKPWNCPHGRPTMRHLMELRDWSSFSKDYEI
notes: Mlh1, S. cerevisiae; Pms1, S. cerevisiae; also called MMR endonuclease Mlh1–Pms1
What is called stoichiometry N is a count of units in the complex or per binding partner. For B1, the binding result in assay [1], in assay [2] and in assay [3] was “binds” throughout. Further, the “stoichiometry N” value in assay [4] came out at 1.07 Mlh1–Pms1 per Msh2–Msh6. Also, the “Mlh1–Pms1 endonuclease nicking of a 3′ nicked mispaired DNA promoted by the Msh2–Msh6 variant (with PCNA, RFC-Δ1N), 0.1 and 2.5 mM ATP, relative to WT Msh2–Msh6” value in assay [5], in assay [6] and in assay [7] was ~50 % of the nicking of WT Msh2–Msh6 in each case.

The values are drawn from paper PMC6254361, “The properties of Msh2–Msh6 ATP binding mutants suggest a signal amplification mechanism in DNA mismatch repair” (The Journal of Biological Chemistry, 2018).
